Where a chain is given by its changes, count along the chain named. In names and notes the source's numbering stands.
B1: Recombinant human COA7 (natural protein)
chain: MAGMVDFQDEEQVKSFLENMEVECNYHCYHEKDPDGCYRLVDYLEGIRKNFDEAAKVLKFNCEENQHSDSCYKLGAYYVTGKGGLTQDLKAAARCFLMACEKPGKKSIAACHNVGLLAHDGQVNEDGQPDLGKARDYYTRACDGGYTSSCFNLSAMFLQGAPGFPKDMDLACKYSMKACDLGHIWACANASRMYKLGDGVDKDEAKAEVLKNRAQQLHKEQQKGVQPLTFG
B2: Recombinant Y137C COA7 (^Y137CCOA7) (natural protein, human)
chain: B1 chain with Y137C

Tests used:
COA7 = COA7 (Homo sapiens, UniProt Q96BR5); assay: biochemical
AUC = molecular target: the molecule itself; assay: AUC

| Molecule | Kd (COA7) [nM] | stoichiometry N (AUC) |
| --- | --- | --- |
| C=CC1=C(C)C2=Cc3c(C=C)c(C)c4[n]3[Fe]([Cl])[n]3c(c(C)c(CCC(=O)O)c3=CC3=NC(=C4)C(C)=C3CCC(=O)O)=CC1=N2 [hemin] | 1400 ± 280 |  |
| B1 |  | 2 |
| B2 |  | 2 |

Reference: publication PMC8892353 (Proceedings of the National Academy of Sciences of the …, 2022)
